Experimental data as given in article PMC3161730 (2012).
Where two headings read alike, the source gives them in different places.

Legend:
Experiment in all cases: plate-based fluorescence binding assay
TrkB [1] = target: T1, TrkB (Rattus norvegicus, UniProt Q63604)
T1 chain: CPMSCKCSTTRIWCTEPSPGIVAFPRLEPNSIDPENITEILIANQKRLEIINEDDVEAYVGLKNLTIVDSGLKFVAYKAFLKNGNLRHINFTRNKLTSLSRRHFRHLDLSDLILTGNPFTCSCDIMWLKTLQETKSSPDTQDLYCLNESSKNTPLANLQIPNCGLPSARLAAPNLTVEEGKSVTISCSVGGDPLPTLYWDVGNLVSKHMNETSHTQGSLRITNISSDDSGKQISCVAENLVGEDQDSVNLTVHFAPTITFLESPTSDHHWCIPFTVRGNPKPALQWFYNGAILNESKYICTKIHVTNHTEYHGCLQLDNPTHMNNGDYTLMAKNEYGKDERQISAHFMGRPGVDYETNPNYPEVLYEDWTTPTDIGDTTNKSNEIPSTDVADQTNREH

TrkB [2] = target: T1, TrkB
TrkB [3] = target: T1, TrkB
TrkB [4] = target: T1, TrkB

B1: BDNF (protein)
chain: HSDPARRGELSVCDSISEWVTAADKKTAVDMSGGTVTVLEKVPVSKGQLKQYFYETKCNPMGYTKEGCRGIDKRHWNSQCRTTQSYVRALTMDSKKRIGWRFIRIDTSCVCTLTIKRGR
Kd (TrkB [1]): 0.53 nM
Kd (TrkB [2]): 3.37 nM
Kd (TrkB [3]): 0.00179 nM
Kd (TrkB [4]): 0.00011 nM
